Assay results taken from patent US20120058118A1 (Boehringer Ingelheim, published 2012).
Like-named read-outs stand apart in the source and are kept apart here.

Columns and labels:
[1] = target: T1, mouse A-beta(1-40) peptide (mouse); experiment: ELISA EC50
T1 construct: Bachem peptide coated directly; also called rodent A-beta(1-40)
T1 peptide: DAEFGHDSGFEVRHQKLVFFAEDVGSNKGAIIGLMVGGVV

[2] = target: T2, human A-beta peptide (residues 1-24) (human); experiment: crystal structure
T2 construct: used for co-crystallisation; also called A-beta(1-24)
T2 sequence (peptide, as listed by the source): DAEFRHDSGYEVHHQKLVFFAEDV
Experimental: The complex is concentrated by diafiltration to a concentration of 4 mg/ml. Crystallization trials are set up as sitting drop vapour diffusion experiments by mixing 200 nl of protein with 200 nl of reservoir solution against a reservoir volume of 100 μl. […] Data are collected at the beamline 6SA of the swiss light source at the Paul-Scherrer Institute in Villigen, Switzerland.

[3] = target: T3, human A-beta(1-40) peptide, monomeric (BAM) (human, biotin at the C-terminus in capture ELISA, SPR and TR-FRET; not biotinylated where coated directly (Example 7)); experiment: ELISA, format not stated
T3 construct: synthetic peptide (Anaspec), TFA/HFIP treated to give monomer; also called monomeric A-beta

[4] = target: T3, human A-beta(1-40) peptide, monomeric …; experiment: cell-based or functional assay
[5] = target: T3, human A-beta(1-40) peptide, monomeric …; experiment: TR-FRET competition, mean IC50
[6] = target: T3, human A-beta(1-40) peptide, monomeric …; experiment: ABII002 TR-FRET competition assay
[7] = target: T3, human A-beta(1-40) peptide, monomeric …; experiment: ELISA, peptide coated at 2 µg/ml, anti-myc detection
[8] = target: T1, mouse A-beta(1-40) peptide; experiment: as above
[9] = target: T3, human A-beta(1-40) peptide, monomeric …; experiment: TR-FRET competition; labelled competitor not given
[10] = target: T4, soluble APP-alpha (UniProt P05067-4 18-612, limits assumed, biotinylated where used as labelled partner); experiment: TR-FRET: competition with labelled ABII320 for biotinylated sAPPalpha; non-labeled ABII035 as competitor; biotinylated sAPPalpha
T4 construct: bought; also called sAPPalpha
T4 sequence (P05067 other isoform, or with tags, fused parts or gaps limits assumed): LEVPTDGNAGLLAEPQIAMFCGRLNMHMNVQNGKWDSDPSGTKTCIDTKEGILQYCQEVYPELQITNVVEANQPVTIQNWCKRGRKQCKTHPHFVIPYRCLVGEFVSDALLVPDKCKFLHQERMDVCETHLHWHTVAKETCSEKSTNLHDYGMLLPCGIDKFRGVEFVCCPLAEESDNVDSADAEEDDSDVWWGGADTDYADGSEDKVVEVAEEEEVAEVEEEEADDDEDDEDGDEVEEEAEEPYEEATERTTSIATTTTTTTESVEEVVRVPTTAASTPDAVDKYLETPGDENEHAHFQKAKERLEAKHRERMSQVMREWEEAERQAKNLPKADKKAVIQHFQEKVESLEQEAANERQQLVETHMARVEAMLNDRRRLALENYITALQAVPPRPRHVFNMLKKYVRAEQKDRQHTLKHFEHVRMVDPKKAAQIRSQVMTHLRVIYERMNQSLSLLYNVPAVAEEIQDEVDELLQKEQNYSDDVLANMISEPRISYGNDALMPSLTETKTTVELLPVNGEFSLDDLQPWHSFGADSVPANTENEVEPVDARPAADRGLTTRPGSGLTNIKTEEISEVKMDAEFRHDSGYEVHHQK
Experimental: Two independent experiments are performed applying a dilution series of the competitor compounds.

[11] = target: T3, human A-beta(1-40) peptide, monomeric …; experiment: ABII050 TR-FRET competition assay
[12] = target: T5, A-beta(1-28) peptide (human); experiment: KinExA, A-beta(1-28) in solution; PEGylated ABII322
T5 construct: Anaspec peptide, solution antigen in KinExA
T5 sequence (peptide, as listed by the source): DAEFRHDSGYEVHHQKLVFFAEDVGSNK
Experimental: The KinExA experiments are conducted with a KinExA 3000 and the KinExA Pro software (Sapidyne Instruments Inc., USA) at room temperature (ca. 21° C.). PBS with 0.02% NaN₃ is used as running buffer. For all experiments, antigen is serially diluted into PBS with 0.1% BSA and 0.02% NaN₃ having a constant VHH concentration. The mixtures of antigen and VHH are incubated for 24 h at room temperature prior to measurement. The flow rate of the samples and the labeling antibody for all experiments is 0.25 ml/min.
This antibody is used at a volume of 500 μl and a concentration of 0.5 μg/ml in PBS with 0.1% BSA and 0.02% NaN₃.
The equilibrium titration data are fit to a 1:1 binding model using KinExA Pro software Version 1.0.3 (Sapidyne Instruments Inc., USA). […] The sample volume is 5 ml each. […] The sample volume is 11 ml each.

[13] = target: T6, pGlu-A-beta(1-28), C-terminally biotinylated (human, pyroglutamate formed from the glutamate at position 3 (N-terminus); biotin at the C-terminus); experiment: SPR on captured C-terminally biotinylated pGlu-A-beta(1-28), 1:1 model
T6 construct: printed as pGlu-A-beta(1-28), while the text says that the first two N-terminal residues are missing; range 3-28 is my reading; also called pyroglutamyl-Abeta
T6 sequence (peptide, as listed by the source): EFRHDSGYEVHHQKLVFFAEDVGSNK
Text: Association and dissociation curves can be fitted using a 1:1 interaction model and an accurate KD value can be determined.

[14] = target: T7, aggregated A-beta(1-40) peptide (BAA) (human); experiment: BAA ELISA
T7 construct: also called A-beta peptide aggregates

[15] = target: T3, human A-beta(1-40) peptide, monomeric …; experiment: BAM ELISA
[16] = target: T7, aggregated A-beta(1-40) peptide (BAA); experiment: BAA ELISA; remark: listed apart in the source
[17] = target: T3, human A-beta(1-40) peptide, monomeric …; experiment: BAM ELISA; remark: listed apart in the source
[18] = target: T3, human A-beta(1-40) peptide, monomeric …; experiment: TR-FRET competition
[19] = target: T3, human A-beta(1-40) peptide, monomeric …; experiment: SPR on captured biotinylated A-beta(1-40)
[20] = target: T3, human A-beta(1-40) peptide, monomeric …; experiment: 42D4 TR-FRET assay (labelled ABII42D4)
[21] = target: T3, human A-beta(1-40) peptide, monomeric …; experiment: TR-FRET competition, labelled ABII60A10
[22] = target: T3, human A-beta(1-40) peptide, monomeric …; experiment: 60A10 TR-FRET assay (labelled ABII60A10)
[23] = target: T3, human A-beta(1-40) peptide, monomeric …; experiment: SPR, captured C-terminally biotinylated A-beta(1-40)

B1: ABII035 (VHH)
VHH: EVQLLESGGGLVQPGGSLRLSCVHSGPTFRTDTMGWFRQAPGKGREFVAAVTWNSGRINYADSVKGRFTISRDNSKNTAYLQMNSLRPEDTAVYYCAAHRFVVGGNRVEDWRYWGQGTLVTVSS
notes: humanized variant of ABII002
fold difference mouse against human A-beta [1]: 2.2 fold
binding result [2]: binds
fold difference of EC50 against the 2D2 and 2G6 VHHs [3]: > 50 fold
Aggregation inhibition (% inhibition at 26 µM) [4]: 54%
IC50 [5]: 4 nM
IC50 [6]: 3.5 nM
EC50 [7]: 2.5 nM
EC50 [8]: 5.7 nM
IC50 [9]: 4 nM
IC50 [10]: 25.6 nM

B2: ABII322-PEG40 (designed binder)
chain: VQLLESGGGLVQPGGSLRLSCAASGRTFNNYNMGWFRQAPGKGREFVAAVSRSGVSTYYADSVKGRFTISRDNSKNTVYLQMNSLRPEDTAVYYCAAAYRGTAINVRRSYSSWGQGTLVTVSSGGGSGGGGSGGGGCGGGGSGGGGSGGGEVQLLESGGGLVQPGGSLRLSCVHSGPTFRTDTMGWFRQAPGKGREFVAAVTWNSGRINYADSVKGRFTISRDNSKNTAYLQMNSLRPEDTAVYYCAAHRFVVGGNRVEDWRYWGQGTLVTVSS
modifications: PEG40 on the Cys at position 14 of the 27GS linker
notes: 059-27GSC-035; also called PEGylated ABII322 VHH construct; biparatopic PEGylated VHH ABII322
IC50 [6]: 0.14 nM
IC50 [11]: 0.17 nM
Kd [12]: 0.0006 nM
Kd [13]: 1 nM

B3: Fab fragment of monoclonal antibody m266 (Fab, V domains shown)
VH: EVKLVESGGGLVQPGGSLKLSCAVSGFTFSRYSMSWVRQTPEKRLELVAQINSVGNSTYYPDTVKGRFTISRDNAEYTLSLQMSGLRSDDTATYYCASGDYWGQGTTLTVSS
VL: DVVMTQTPLSLPVSLGDQASISCRSSQSLIYSDGNAYLHWFLQKPGQSPKLLIYKVSNRFSGVPDRFSGSGSGTDFTLKISRVETEDLGVYFCSQSTHVPWTFGGGTKLEIK
notes: also called Fab266; m266Fab
EC50 [14]: 1.8 nM
EC50 [15]: 1.8 nM
EC50 [16]: 1.8 nM
EC50 [17]: 1.8 nM
IC50 [18]: 0.52 nM
Aggregation inhibition (% inhibition at 26 µM) [4]: 82%
IC50 [11]: 0.52 nM
koff [19]: 4e-05 s⁻¹
IC50 [20]: > 1000 nM
IC50 [21]: 0.52 nM
IC50 [22]: 2.3 nM
Kd [23]: 0.3 nM
